Laboratory results taken from US20210355194A1.
Where two headings read alike, the source gives them in different places.

Columns and labels:
Settings in all cases: remark: other sources report otherwise
[1] = target: T1, CV S-protein construct 6 trimer TP31001F (SARS-CoV-2), P0DTC2; experiment: SPR
[2] = target: T1, CV S-protein construct 6 trimer …; experiment: SPR; remark: listed apart in the source
[3] = target: SARS-COV2-S1 RBD (mouse IgG2Fc tag) (SARS-CoV-2), P0DTC2
[4] = target: SARS-COV2-S1 RBD (mouse IgG2Fc tag) (SARS-CoV-2), P0DTC2; experiment: column not explained; likely FACS, S1 RBD on Vero E6
[5] = target: SARS-COV2-S1 RBD (mouse IgG2Fc tag) (SARS-CoV-2), P0DTC2; experiment: FACS, S1 RBD-mFc on Vero E6 (ACE2)
[6] = target: SARS-COV2-S1 RBD (mouse IgG2Fc tag) (SARS-CoV-2), P0DTC2; experiment: FACS, blocks S1 RBD-mFc binding to ACE2 on Vero E6
[7] = target: SARS-COV2-S1 RBD (mouse IgG2Fc tag) (SARS-CoV-2), P0DTC2; remark: listed apart in the source

Row | Binder | Kd [1] [nM] | Kd [2] [nM] | IC50 [3] [nM] | MFI Fold Decrease [4] [fold] | Competition Factor [5] | IC50 [6] [nM] | IC50 [7] [nM]
1 | variant 6-81 (Fc fusion) VHH: EVQLVESGGGLVQPGGSLRLSCAASGFIGNYHAMGWFRQAPGKEREFVAAVTWSGGTTNYADSVKGRFTISADNSKNTAYLQMNSLKPEDTAVYYCAREGYYYDSSGYPYYFDYWGQGTLVTVSS | 3.9 | 3.9 | 1.38 | – | – | – | –
2 | variant 6-3 (Fc fusion) VHH: EVQLVESGGGLVQPGGSLRLSCAASGFTFSPSWMGWFRQAPGKEREFVATINEYGGRNYADSVKGRFTISADNSKNTAYLQMNSLKPEDTAVYYCARVDRDFDYWGQGTLVTVSS | – | – | – | 9.51 | 9.51 | 0.74 | –
3 | variant 5-50 (Fc fusion) VHH: EVQLVESGGGLVQPGGSLRLSCAASGFSLDYYGMGWFRQAPGKEREFVAAITSGGTPHYADSVKGRFTISADNSKNTAYLQMNSLKPEDTAVYYCASAYNPGIGYDWGQGTLVTVSS | – | 3.8 | – | – | – | – | 1.61
